The text below walks through data of article PMC11033527, “Inhibition of SARS-CoV-2 nucleocapsid protein–RNA interaction by guanosine oligomeric RNA”.

Data set [1] has as its target T1, SARS-CoV-2 nucleocapsid N-terminal RNA-binding domain (NTD) (SARS-CoV-2, UniProt P0DTC9 46-174). Description: EMSA competition; vs 32P-probe RNA; n=7. To be noted: protein: recombinant; tags: His-tag (pET-15b). (Mobility shift assays separate free from complexed probe on a gel.)
For data set [2], the target named is SARS-CoV-2 nucleocapsid protein full length (NP) (SARS-CoV-2, UniProt P0DTC9 1-419).
Data set [3] has as its target T1, SARS-CoV-2 nucleocapsid N-terminal …. Description: EMSA competition; vs 32P-probe RNA; n=4. The settings on record: protein: recombinant; tags: His-tag (pET-15b).
For data set [4] the target is unchanged. Description: EMSA; 800 ng NTD, 5 ng RNA. To be noted: protein: recombinant; tags: His-tag (pET-15b); label: 32P-CTP internal.
For data set [5] the target is unchanged. The experiment in a line: EMSA competition; vs 32P-probe RNA; n=6. To be noted: protein: recombinant; tags: His-tag (pET-15b).
Data set [6] shares this target. Description: EMSA competition; vs 32P-probe RNA; n=3. To be noted: protein: recombinant; tags: His-tag (pET-15b).

The term IC50 denotes the point on the concentration scale where inhibition reaches its midpoint.

B1: In-1 (ssRNA)
RNA: CCGGCG
For the molecule B1, in data set [1], the IC50 was 34.3 ± 27.8 µM.

B2: G12 (ssRNA)
RNA: GGGGGGGGGGGG
Consider B2, for which the binding result in data set [2] was “binds”.

B3: G6 (ssRNA)
RNA: GGGGGG
For B3, the IC50 in data set [3] was found to be 0.62 ± 0.07 µM.

B4: 32P-probe RNA (T7 transcript) (ssRNA)
RNA: GGGCGAGGCCACGCGGAGUACGAUCGAGUGUACAG
B4: in data set [4], the binding result is listed as “binds”.

B5: FITC-probe RNA (32-base) (ssRNA)
RNA: CGAGGCCACGCGGAGUACGAUCGAGUGUACAG
For B5, the binding result in data set [2] is “binds”.

B6: mIn-1 (mIn-1-1) (ssRNA)
RNA: CCAGCG
Turning to B6, the IC50 in data set [5] amounted to 3.48 ± 1.46 µM.

B7: A6 (ssRNA)
RNA: AAAAAA
On to B7, for which the IC50 in data set [6] is 22.9 ± 16.4 µM.
